Experimental data as given in US5747253.

Test system: c-Myc, P01106-1
Experiment: competition
Conditions: 2'-OMe; 50 uM pool vs myc PS site; FIG. 5 labels this pool SEQ ID NO:33

Sequence of c-Myc, P01106-1 (P01106 16-454): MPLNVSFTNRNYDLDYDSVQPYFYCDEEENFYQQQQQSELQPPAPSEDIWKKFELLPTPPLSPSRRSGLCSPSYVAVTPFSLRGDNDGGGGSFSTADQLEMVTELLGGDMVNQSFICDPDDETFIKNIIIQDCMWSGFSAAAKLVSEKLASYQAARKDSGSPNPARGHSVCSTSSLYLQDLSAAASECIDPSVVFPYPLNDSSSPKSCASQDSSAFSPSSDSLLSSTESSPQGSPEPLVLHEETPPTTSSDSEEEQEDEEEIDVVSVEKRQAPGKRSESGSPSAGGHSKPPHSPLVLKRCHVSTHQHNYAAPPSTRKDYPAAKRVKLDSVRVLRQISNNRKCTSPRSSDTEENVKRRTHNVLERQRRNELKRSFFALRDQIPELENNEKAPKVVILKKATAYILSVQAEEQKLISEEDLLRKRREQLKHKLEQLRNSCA

Sequence: GCGNNNCNNNNNNCGC [2'-OMe pool X=C]
- binding signal: 50 % inhibition
